The target of data set [1] is EcoSSB;Eco chi-psi complex (Escherichia coli;Escherichia coli LK111lambda) (UniProt P0AGE0+P28905+P28632). The data set can be described thus: analytical ultracentrifugation (sedimentation velocity). The note with it: Low salt: 5 mM NaCl, 5 mM KPi pH 7.4, 0.87 M glycerol, 0.5 mM DTT; high salt: 0.3 M NaCl, 20 mM KPi pH 7.4, 0.5 mM DTT; AUC at 20 C; EMSA incubated 10 min at …. (In general: Mobility shift assays separate free from complexed probe on a gel.)

Data set [2] concerns the target T1, Pae chi-psi complex (DNA polymerase III) (Pseudomonas aeruginosa PAO1) (UniProt O68823).
T1 sequence: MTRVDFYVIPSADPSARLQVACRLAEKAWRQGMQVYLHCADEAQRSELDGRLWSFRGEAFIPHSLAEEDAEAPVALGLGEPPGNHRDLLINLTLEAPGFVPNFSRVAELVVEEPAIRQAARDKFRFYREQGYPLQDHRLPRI
The description is as above. The conditions noted are these: Low salt: 5 mM NaCl, 5 mM KPi pH 7.4, 0.87 M glycerol, 0.5 mM DTT; high salt: 0.3 M NaCl, 20 mM KPi pH 7.4, 0.5 mM DTT; AUC at 20 C; EMSA incubated 10 min at ….

Data set [3] has as its target PaeSSB;Pae chi-psi complex (DNA polymerase III) (Pseudomonas aeruginosa;Pseudomonas aeruginosa PAO1) (UniProt P40947+O68823). The data set is described as above. The note with it: Low salt: 5 mM NaCl, 5 mM KPi pH 7.4, 0.87 M glycerol, 0.5 mM DTT; high salt: 0.3 M NaCl, 20 mM KPi pH 7.4, 0.5 mM DTT; AUC at 20 C; EMSA incubated 10 min at ….
Data set [4] addresses P. aeruginosa single-stranded DNA-binding protein (P. aeruginosa) (UniProt P40947). The data set can be described thus: AUC; sedimentation velocity; χψ titrated to 6 μM SSB in high salt buffer, 50000 rpm, 20°C, 280 nm; free χψ from c(s); model of n independent χψ per SSB tetramer.
Data set [5] shares this target. Nature of the data set: AUC; sedimentation velocity; χψ titrated to 0.35 μM cognate SSB saturated with 12.3 μM poly(dT), low salt buffer, 22000 rpm, 20°C, 230 nm; model of n χψ per SSB tetramer.

From paper PMC3197488 come the findings set out here.

Chain of P. aeruginosa single-stranded DNA-binding protein (P. aeruginosa) (P40947 whole entry): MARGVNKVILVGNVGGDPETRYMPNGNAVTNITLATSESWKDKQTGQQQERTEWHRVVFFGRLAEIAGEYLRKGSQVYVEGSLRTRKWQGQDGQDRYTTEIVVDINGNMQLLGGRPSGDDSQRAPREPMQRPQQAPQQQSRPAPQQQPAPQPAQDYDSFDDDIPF
Chain of PaeSSB;Pae chi-psi complex (DNA polymerase III) (Pseudomonas aeruginosa;Pseudomonas aeruginosa PAO1) (P40947 2-165, one chain of several): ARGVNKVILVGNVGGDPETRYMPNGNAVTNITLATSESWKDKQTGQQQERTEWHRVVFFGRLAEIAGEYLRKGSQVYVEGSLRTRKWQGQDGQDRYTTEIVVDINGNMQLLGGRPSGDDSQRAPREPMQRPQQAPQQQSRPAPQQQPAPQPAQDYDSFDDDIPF
Chain of EcoSSB;Eco chi-psi complex (Escherichia coli;Escherichia coli LK111lambda) (P0AGE0 2-178, chain 1 of 3): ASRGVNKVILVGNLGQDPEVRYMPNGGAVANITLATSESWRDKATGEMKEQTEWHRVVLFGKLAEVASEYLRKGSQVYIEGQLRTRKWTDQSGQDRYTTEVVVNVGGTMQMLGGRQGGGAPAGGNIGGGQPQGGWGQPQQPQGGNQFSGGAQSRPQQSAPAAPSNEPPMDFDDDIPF
Chain of EcoSSB;Eco chi-psi complex (Escherichia coli;Escherichia coli LK111lambda) (P28905 whole entry, chain 2 of 3): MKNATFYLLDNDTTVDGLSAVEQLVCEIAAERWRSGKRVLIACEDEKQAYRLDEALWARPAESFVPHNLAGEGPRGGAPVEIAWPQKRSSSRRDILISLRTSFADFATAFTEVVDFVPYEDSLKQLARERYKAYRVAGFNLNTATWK
Chain of EcoSSB;Eco chi-psi complex (Escherichia coli;Escherichia coli LK111lambda) (P28632 whole entry, chain 3 of 3): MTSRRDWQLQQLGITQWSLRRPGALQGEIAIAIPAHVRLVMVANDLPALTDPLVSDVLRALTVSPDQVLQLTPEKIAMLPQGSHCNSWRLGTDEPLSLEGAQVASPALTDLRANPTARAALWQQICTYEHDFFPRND

Consider “TTTTTTTTTTTTTTTTTTTTTTTTTTTTTTTTTTTTTTTTTTTTTTTTTTTTTTTTTTTTTTTTTTTTTTTTTTTTTTTTTTTTTTTTTTTTTTTTTTTTTTTTTTTTTTTTTTTTTTTTTTTTTTTTTTTTTTTTTTTTTTTTTTTTTTTTTTTTTTTTTTTTTTTTTTTTTTTTTTTTTTTTTTTTTTTTTTTTTTTTTTTTTTTTTTTTTTTTTTTTTTTTTTTTTTTTTTTTTTTTTTTTTTTTTTTTTTTTTTTTTTTTTTTTTTTTTTTTTTTTTTTTTTTTTTTTTTTTTTTT [poly(dT)]”, for which the figures for the Ka in data set [1], in data set [2] and in data set [3] were 6e+06 M⁻¹, 500000 M⁻¹ and more than 5e+07 M⁻¹, respectively.
For the substance “P. aeruginosa χψ complex (from UniProt O68823 1-142)”, in data set [4], the Ka stood at 130000 M⁻¹ and the stoichiometry N (χψ per SSB tetramer) is 2.2. In data set [5], the Ka was more than 5e+07 M⁻¹ and the stoichiometry N (χψ per SSB tetramer) came to 2.2.
